Laboratory results as given in patent publication US20250355001A1, “METHOD FOR DETECTING A TAU PROTEIN FRAGMENT IN A SAMPLE” (GTINVENT LIMITED, priority 2022, published 2025).

Tests used:
hT40 = target: T1, hT40 (Homo sapiens, UniProt P10636); test: Sandwich ELISA limits of detection (LoD) of antibody pairs; format: binding; details: S1D12 mAb capture; hT40
T1 construct: Full length tau (hT40)
Source text: The diverse panel of high affinity anti-tau antibodies (scAb and mAb formats) were paired in various combinations and tested in a Sandwich (or Capture) ELISA format to calculate their limits of detection (LoD) and their ability to differentiate between different tau species. Biologically, tau exists in 6 different isoforms and is subjected to numerous post translational modifications, some of them playing a significant role in the progression of neurodegeneration.
For Sandwich ELISA using colourimetric detection, 96 well Maxisorp plates were coated with the capture antibody S1D12 mAb at 1 μg/ml for 1 h at RT followed by blocking with 2% MPBS as normal. Full length tau (hT40), at 1 μg/ml starting concentration was added to designated wells and double diluted across rest of the plates and left to incubate at R/T for 1 h. A series of detection scAbs with varying epitope recognition properties were added at 10 μg/ml to designated wells (FIG. 22). For colourimetric detection HRP conjugated anti-HuCk secondary antibody was used and the resulting immunoreaction was developed and absorbance at 450 nm measured as described previously. Cut-off point for a positive binding event was an absorbance value of 0.3 following background subtraction. In order to enhance the assay sensitivity, a chemiluminescent detection method was adopted where 50 μL SuperSignal ELISA Femto Substrate (Thermo Scientific) was added to each well following incubation with anti-HuCK HRP antibody and subsequent washing. The luminescence was read using Clariostar Plus microplate reader. A further modification to this protocol was done where various detection scAbs were directly conjugated with HRP and detected using chemiluminescent protocol as before. The lowest levels of detection achieved using different detection scAbs and a comparison of colourimetric and chemiluminescent methods of detection are shown in Table 28
Similarly, a sandwich ELISA format was set up using S1G2 mAb at 1 μg/ml as the capture antibody and HRP conjugated S1D12 mAb for detection. The assay was conducted using chemiluminescent protocol described above.

dGAE aggregates = dGAE aggregates (Homo sapiens, UniProt P10636); test: Sandwich ELISA on SDS/Triton X-100 treated dGAE aggregates; format: binding; design: key to LoD, 423 mAb capture, Untreated dGAE agg. / LoD, Direct immobilisation of dGAE aggregates, Untreated dGAE agg.: NB denotes no binding; details: untreated aggregates
Procedure: We have noticed Sodium dodecyl sulphate (SDS) can break apart dGA/dGAE aggregates and separate them into smaller fragments by performing an SDS-PAGE. This has been replicated and tested using an ELISA as described below.
For aggregation, 1000 μL 100 μM dGAE+10 μL 10 mM DTT was added to a ‘LoBind’ microfuge tubes and agitated at 700 RPM/37° C. for 24 hours. Resulting sample centrifuged at 17,000×g/4° C. for 60 min and supernatant discarded to remove left over monomer. Pellet resuspended in half the original volume for future experiments and hereafter referred to as ‘aggregates’. 1 μl of aggregates was added to 1 ml of PBS and SDS was added to a final concentration of 1% (w/v). This was left to incubate on lab bench for 1 h with gentle agitation every 15 minutes. In order to neutralize the SDS effect on ELISA, Triton X-100 added to a final concentration of 3% (v/v) and mixed gently by pipetting to prevent any bubble formation. 200 μl added of this mix was to the first well of an ELISA plate coated with 1 μg/ml S1D12 mAb and blocked with 2% MPBS. Similarly aggregates treated with only SDS or Triton X-100, untreated aggregates, dGAE monomers treated with only SDS or SDS+Titon X-100 were also added to designated wells as controls. All samples were then double diluted across the plate in final volumes of 100 μl. The final column was left with no protein to act as a blank. This was allowed to stand at room temperature for 1 hour followed by the addition of detection scAb-S1G2 at 10 μg/ml. Anti-HuCk HRP labelled secondary antibody was added as described previously and ELISA data generated was represented using the graph below.

Sequence of dGAE aggregates (P10636 614-708): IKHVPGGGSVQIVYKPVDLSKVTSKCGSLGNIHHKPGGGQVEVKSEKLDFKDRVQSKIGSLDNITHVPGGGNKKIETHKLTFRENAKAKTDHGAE
T1 sequence (P10636 1-441 isoform P10636-8): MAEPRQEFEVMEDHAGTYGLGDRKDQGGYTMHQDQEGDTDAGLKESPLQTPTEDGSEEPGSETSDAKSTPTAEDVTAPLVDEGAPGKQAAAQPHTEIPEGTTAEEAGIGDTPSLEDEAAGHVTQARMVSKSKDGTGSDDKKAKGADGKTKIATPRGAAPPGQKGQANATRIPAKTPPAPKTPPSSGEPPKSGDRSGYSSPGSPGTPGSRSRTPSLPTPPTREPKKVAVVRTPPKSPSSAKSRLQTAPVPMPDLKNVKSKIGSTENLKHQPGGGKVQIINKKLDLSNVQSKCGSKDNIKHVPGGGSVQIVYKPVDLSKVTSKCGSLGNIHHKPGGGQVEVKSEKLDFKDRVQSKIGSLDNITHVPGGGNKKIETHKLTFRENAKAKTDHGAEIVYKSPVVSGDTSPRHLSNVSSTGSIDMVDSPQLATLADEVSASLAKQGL

- LoD (ng/ml) direct HRP conjugation of detection scAb & chemiluminescence (hT40): 0.04 ng/mL
- LoD, 423 mAb capture, Untreated dGAE agg. (dGAE aggregates; sandwich ELISA, 423 mAb capture): NB
- LoD, S1D12 mAb capture, Untreated dGAE agg. (dGAE aggregates; sandwich ELISA, S1D12 mAb capture): 250 ng/mL
B1: S1G2: sheep-derived anti-tau core clone; scFv SEQ ID NO: 81, VH 455, VL 456 (protein)
scFv: QVQLQESGPSLVKPSQTLSLTCTVSGFSLTSNSVGWVRQAPGKAPEWVAGIDTDGEEGYNPALNSRLSITRDTSKSQVSLSLSSVTSEDTAVYYCGRSYRADGLAYGYVQAIDYWGPGLLVTVSSEGKSSGASGESKVDDQAVVTQPSSVSGSLGQRVSITCSGSFIGISSVGWFQQLPGSGLRTIIVASDGRPSGVPDRFSMSKSGNTATLTISSLQAEDEADYFCGSSDRTPYTGVFGSGTRLTVLG
modifications: S1G2 amino acid sequence
- LoD, Direct immobilisation of dGAE aggregates, Untreated dGAE agg. (dGAE aggregates; direct immobilisation): NB
